The supplement of paper PMC7877785
± gives the uncertainty stated by the source.

Test: self-splicing fitness, log relative to wild type (ln ratio); higher = more splicing; Tetrahymena group I intron in knt gene, E. coli kanamycin selection, DiMSum; sequences stand for … in CUCUCU…GGAGGGAAAAGUUAUCAGGCAUGCACCUGGUAGCUAGUCUUUAAACCAAUAGAUUGCAUCGGUUUAAAAGGCAAGACCGUCAAAUUGCGGGAAAGGGGUCAACAGCCGUUCAGUACCAAGUCUCAGGGGAAACUUUGAGAUGGCCUUGCAAAGGGUAUGGUAAUAAGCUGACGGACAUGGUCCUAACCACGCAGCCAAGUCCUAAGUCAACAGAUCUUCUGUUGAUAUGGAUGCAGUUCACAGACUAAAUGUCGGUCGGGGAAGAUGUAUUCUUCUCAUAAGAUAUAGUCGGACCUCUCCUUAAUGGGAGCUAGCGGAUGAAGUGAUGCAACACUGGAGCCGCUGGGAACUAAUUUGUAUGCGAAAGUAUAUUGAUUAGUUUUGGAGUACUCGUGGUCG
Method in brief: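 Six replicate transformations of E. coli BL21(DE3) with a pET-22b(+) library were grown overnight at 37°C or 30°C. The library randomised all eight P1ex-region intron nucleotides, the intron lying in the knt kanamycin-resistance gene, and plates were LB agar with or without 25 μg/mL kanamycin plus 100 μg/mL carbenicillin, 50 μM IPTG and 0.2% rhamnose. Pooled colonies were amplicon-sequenced on an Illumina HiSeq 2500, and fitness is the DiMSum error-weighted combination of wild-type-normalised replicate fold changes, kanamycin versus none.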

Row | Sequence | self-splicing fitness (ln) (30 °C) | self-splicing fitness (ln) (37 °C)
1 | GUAAAGCAAUAUUACGAAUC | -1.71 ± 0.14 | -0.902 ± 0.14
2 | GUAAAGCAAUAUUACGACGA | 0.208 ± 0.073 | 1.1 ± 0.1
3 | GUAAAGCAAUAUUACGACUA | -0.649 ± 0.097 | -0.957 ± 0.11
4 | GUAAAGCAAUAUUACGAUAG | -1.08 ± 0.075 | -0.747 ± 0.11
5 | GUAAAGCAAUAUUACGAUUG | -2.98 ± 0.18 | -0.942 ± 0.22
6 | GUAAAGCAAUAUUACGAUUU | -0.348 ± 0.051 | 0.232 ± 0.065
7 | GUAAAGCAAUAUUACGCAUC | -1.36 ± 0.11 | -0.97 ± 0.15
8 | GUAAAGCAAUAUUACGCCAC | – | -1.86 ± 0.24
9 | GUAAAGCAAUAUUACGCCGG | -1.27 ± 0.13 | 0.13 ± 0.17
10 | GUAAAGCAAUAUUACGCGCU | -1.4 ± 0.075 | -0.523 ± 0.096
11 | GUAAAGCAAUAUUACGCGGU | -2.79 ± 0.12 | -1.87 ± 0.15
12 | GUAAAGCAAUAUUACGCUAU | -1.22 ± 0.087 | -0.23 ± 0.1
13 | GUAAAGCAAUAUUACGCUCG | -0.0287 ± 0.1 | 0.709 ± 0.13
14 | GUAAAGCAAUAUUACGGAAA | -2.68 ± 0.14 | -1.38 ± 0.18
15 | GUAAAGCAAUAUUACGGAAU | -0.906 ± 0.099 | -0.779 ± 0.15
16 | GUAAAGCAAUAUUACGGACG | -1.06 ± 0.12 | 0.298 ± 0.15
17 | GUAAAGCAAUAUUACGGCCG | -0.257 ± 0.087 | 0.625 ± 0.12
18 | GUAAAGCAAUAUUACGGGUA | -1.02 ± 0.078 | -0.464 ± 0.085
19 | GUAAAGCAAUAUUACGGUGU | -1.5 ± 0.056 | -0.647 ± 0.07
20 | GUAAAGCAAUAUUACGUAUC | -1.1 ± 0.07 | -0.568 ± 0.098
21 | GUAAAGCAAUAUUACGUGCC | -3.19 ± 0.16 | -1.93 ± 0.17
22 | GUAAAGCAAUAUUACGUGCG | -0.447 ± 0.065 | -0.538 ± 0.069
23 | GUAAAGCAAUAUUACGUUGA | -1.97 ± 0.071 | -0.945 ± 0.098
24 | GUAAAGCAAUAUUACGUUGC | -2.38 ± 0.1 | -3.2 ± 0.26
25 | GUAAAGCAAUAUUACGUUGG | -1.84 ± 0.12 | -1.56 ± 0.13
26 | GUACAGCAAUAUUACGACGU | -0.603 ± 0.075 | 0.215 ± 0.081

Row | Sequence | self-splicing fitness (ln) (30 °C) | self-splicing fitness (ln) (37 °C)
27 | GUACAGCAAUAUUACGAGAG | -2.62 ± 0.29 | -2.64 ± 0.25
28 | GUACAGCAAUAUUACGAGCG | -2.59 ± 0.11 | -0.624 ± 0.098
29 | GUACAGCAAUAUUACGAGGU | -4.68 ± 0.29 | -1.97 ± 0.16
30 | GUACAGCAAUAUUACGAUAG | -3.23 ± 0.16 | -0.84 ± 0.13
31 | GUACAGCAAUAUUACGCAAA | -0.875 ± 0.14 | -2.48 ± 0.28
32 | GUACAGCAAUAUUACGCCUG | -2.24 ± 0.25 | -0.634 ± 0.19
33 | GUACAGCAAUAUUACGCUCU | -0.911 ± 0.091 | -0.379 ± 0.11
34 | GUACAGCAAUAUUACGCUUG | -1.97 ± 0.098 | -1.1 ± 0.12
35 | GUACAGCAAUAUUACGGAUG | -2.79 ± 0.2 | -1.8 ± 0.17
36 | GUACAGCAAUAUUACGGCGG | -2.78 ± 0.19 | -2.66 ± 0.22
37 | GUACAGCAAUAUUACGGGCA | -1.9 ± 0.093 | -0.873 ± 0.088
38 | GUACAGCAAUAUUACGUAAA | -2.87 ± 0.14 | -1.44 ± 0.16
39 | GUACAGCAAUAUUACGUCUC | -0.298 ± 0.11 | -0.182 ± 0.12
40 | GUACAGCAAUAUUACGUGGC | -3.61 ± 0.17 | -1.75 ± 0.13
41 | GUACAGCAAUAUUACGUGUA | -3.18 ± 0.16 | -2.32 ± 0.14
42 | GUACAGCAAUAUUACGUUCC | -3.44 ± 0.15 | -3.48 ± 0.42
43 | GUAGAGCAAUAUUACGAAGU | -2.46 ± 0.23 | -0.951 ± 0.17
44 | GUAGAGCAAUAUUACGACUU | -0.172 ± 0.081 | 0.104 ± 0.1
45 | GUAGAGCAAUAUUACGAUAA | -1.5 ± 0.15 | 0.242 ± 0.19
46 | GUAGAGCAAUAUUACGAUCC | -1.22 ± 0.21 | -0.765 ± 0.28
47 | GUAGAGCAAUAUUACGCAUC | -1.49 ± 0.13 | -1.37 ± 0.15
48 | GUAGAGCAAUAUUACGCCGG | -1.41 ± 0.21 | -0.336 ± 0.47
49 | GUAGAGCAAUAUUACGCCUC | -0.746 ± 0.27 | -0.67 ± 0.37
50 | GUAGAGCAAUAUUACGCUAA | -0.515 ± 0.07 | -0.264 ± 0.089
51 | GUAGAGCAAUAUUACGGAUG | -3.96 ± 0.43 | -2.08 ± 0.36
52 | GUAGAGCAAUAUUACGGGCG | -1.68 ± 0.12 | -1.19 ± 0.15

Row | Sequence | self-splicing fitness (ln) (30 °C) | self-splicing fitness (ln) (37 °C)
53 | GUAGAGCAAUAUUACGGUUU | -1.75 ± 0.11 | -0.8 ± 0.13
54 | GUAGAGCAAUAUUACGUCAG | -3.1 ± 0.3 | -2.07 ± 0.23
55 | GUAGAGCAAUAUUACGUGAG | -2.33 ± 0.15 | -0.687 ± 0.16
56 | GUAGAGCAAUAUUACGUGCC | – | -2.12 ± 0.28
57 | GUAGAGCAAUAUUACGUGUG | -0.928 ± 0.073 | -1.6 ± 0.12
58 | GUAGAGCAAUAUUACGUUAA | -2 ± 0.17 | -0.228 ± 0.21
59 | GUAUAGCAAUAUUACGACCU | -1.21 ± 0.18 | -0.345 ± 0.18
60 | GUAUAGCAAUAUUACGACGA | -1.78 ± 0.24 | -0.483 ± 0.19
61 | GUAUAGCAAUAUUACGAGUC | -3.65 ± 0.38 | -0.711 ± 0.19
62 | GUAUAGCAAUAUUACGAUCA | -1.33 ± 0.2 | -0.768 ± 0.16
63 | GUAUAGCAAUAUUACGAUGC | -2.65 ± 0.2 | -2.55 ± 0.24
64 | GUAUAGCAAUAUUACGCAAU | -1.98 ± 0.22 | -2.85 ± 0.4
65 | GUAUAGCAAUAUUACGCCAU | -2.96 ± 0.32 | -1.6 ± 0.22
66 | GUAUAGCAAUAUUACGCCGU | -2.69 ± 0.23 | -0.947 ± 0.19
67 | GUAUAGCAAUAUUACGCUCG | -0.631 ± 0.15 | -0.0296 ± 0.19
68 | GUAUAGCAAUAUUACGCUUA | -2.39 ± 0.17 | -1.23 ± 0.2
69 | GUAUAGCAAUAUUACGGAUG | -2.65 ± 0.39 | -1.99 ± 0.25
70 | GUAUAGCAAUAUUACGGAUU | -2.58 ± 0.14 | -0.56 ± 0.13
71 | GUAUAGCAAUAUUACGGCGG | – | -2.1 ± 0.38
72 | GUAUAGCAAUAUUACGGGGC | – | -1.61 ± 0.37
73 | GUAUAGCAAUAUUACGGUCU | -1.47 ± 0.11 | -0.548 ± 0.16
74 | GUAUAGCAAUAUUACGUAUA | -3.48 ± 0.41 | -1.8 ± 0.25
75 | GUAUAGCAAUAUUACGUCCU | -1.56 ± 0.15 | -0.00945 ± 0.19
76 | GUAUAGCAAUAUUACGUGAC | -2.65 ± 0.13 | -1.65 ± 0.14
77 | GUAUAGCAAUAUUACGUGCG | -1.4 ± 0.12 | -0.66 ± 0.15
